Publication PMC11118347 (bioRxiv, 2024)

Molecular target: the molecule itself
Test: crystal structure

B1: Human lens fiber membrane intrinsic protein MP20 (construct selected for crystallization) (natural protein)
chain: MYSFMGGGLFCAWVGTILLVVAMATDHWMQYRLSGSFAHQGLWRYCLGNKCYLQTDSIAYWNATRAFMILSALCAISGIIMGIMAFAHQPTFSRISRPFSAGIMFFSSTLFVVLALAIYTGVTVSFLGRRFGDWRFSWSYILGWVAVLMTFFAGIFYMCAYRVHECRRLSTPR
modifications: Janelia Fluor 549 NHS-ester labelling on column; membranes incubated with iodoacetamide
- stoichiometry N: 4
